Measured values taken from IntAct's records for PubMed 29039417.

B1: BBSome complex member BBS5 (Homo sapiens), Q8N3I7 (parent)
chain: MSVLDALWEDRDVRFDLSAQQMKTRPGEVLIDCLDSIEDTKGNNGDRGRLLVTNLRILWHSLALSRVNVSVGYNCILNITTRTANSKLRGQTEALYILTKCNSTRFEFIFTNLVPGSPRLFTSVMAVHRAYETSKMYRDFKLRSALIQNKQLRLLPQEHVYDKINGVWNLSSDQGNLGTFFITNVRIVWHANMNDSFNVSIPYLQIRSIKIRDSKFGLALVIESSQQSGGYVLGFKIDPVEKLQESVKEINSLHKVYSASPIFGVDYEMEEKPQPLEALTVEQIQDDVEIDSDGHTDAFVAYFADGNKQQDREPVFSEELGLAIEKLKDGFTLQGLWEVMS
partner: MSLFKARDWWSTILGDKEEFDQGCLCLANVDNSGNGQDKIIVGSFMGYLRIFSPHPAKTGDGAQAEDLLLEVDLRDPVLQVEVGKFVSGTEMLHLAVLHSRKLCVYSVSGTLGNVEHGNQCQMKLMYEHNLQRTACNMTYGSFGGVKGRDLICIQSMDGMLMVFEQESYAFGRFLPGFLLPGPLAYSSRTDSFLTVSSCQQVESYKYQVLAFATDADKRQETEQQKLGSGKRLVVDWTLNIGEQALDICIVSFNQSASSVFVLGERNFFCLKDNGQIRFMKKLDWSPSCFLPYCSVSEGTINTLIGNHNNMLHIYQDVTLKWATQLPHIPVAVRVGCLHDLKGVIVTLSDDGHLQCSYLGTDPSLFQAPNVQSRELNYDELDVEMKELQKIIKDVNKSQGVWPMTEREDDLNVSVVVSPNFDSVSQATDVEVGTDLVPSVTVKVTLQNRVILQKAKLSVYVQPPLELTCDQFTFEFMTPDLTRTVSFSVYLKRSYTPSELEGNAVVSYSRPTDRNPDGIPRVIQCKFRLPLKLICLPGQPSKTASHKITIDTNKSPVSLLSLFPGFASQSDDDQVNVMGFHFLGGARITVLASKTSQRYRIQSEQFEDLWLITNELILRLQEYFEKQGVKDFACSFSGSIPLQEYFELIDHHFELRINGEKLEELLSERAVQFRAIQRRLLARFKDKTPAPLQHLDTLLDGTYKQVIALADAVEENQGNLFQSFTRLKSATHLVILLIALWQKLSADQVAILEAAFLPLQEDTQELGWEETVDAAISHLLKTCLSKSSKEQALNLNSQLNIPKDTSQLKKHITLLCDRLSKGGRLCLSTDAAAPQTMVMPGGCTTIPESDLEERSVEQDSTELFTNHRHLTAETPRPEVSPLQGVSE

Variants of: B1
Settings: with pthb1_human BBS9, Q3SYG4

Variant	effect of a mutation on the interaction
MSVLDALWEDRDVRFDLSAQQMKTRPGEVLIDCLDSIEDTKGNNGDRGRLLVTNLRILWHSLALSRVNVSVSYNCILNITTRTANSKLRGQTEALYILTKCNSTRFEFIFTNLVPGSPRLFTSVMAVHRAYETSKMYRDFKLRSALIQNKQLRLLPQEHVYDKINGVWNLSSDQGNLGTFFITNVRIVWHANMNDSFNVSIPYLQIRSIKIRDSKFGLALVIESSQQSGGYVLGFKIDPVEKLQESVKEINSLHKVYSASPIFGVDYEMEEKPQPLEALTVEQIQDDVEIDSDGHTDAFVAYFADGNKQQDREPVFSEELGLAIEKLKDGFTLQGLWEVMS [G72S]	disrupting interaction strength
MSVLDALWEDRDVRFDLSAQQMKTRPGEVLIDCLDSIEDTKGNNGDRGRLLVTNLGILWHSLALSRVNVSVGYNCILNITTRTANSKLRGQTEALYILTKCNSTRFEFIFTNLVPGSPRLFTSVMAVHRAYETSKMYRDFKLRSALIQNKQLRLLPQEHVYDKINGVWNLSSDQGNLGTFFITNVRIVWHANMNDSFNVSIPYLQIRSIKIRDSKFGLALVIESSQQSGGYVLGFKIDPVEKLQESVKEINSLHKVYSASPIFGVDYEMEEKPQPLEALTVEQIQDDVEIDSDGHTDAFVAYFADGNKQQDREPVFSEELGLAIEKLKDGFTLQGLWEVMS [R56G]	disrupting interaction strength
MSVLDALWEDRDVRFDLSAQQMKTRPKEVLIDCLDSIEDTKGNNGDRGRLLVTNLRILWHSLALSRVNVSVGYNCILNITTRTANSKLRGQTEALYILTKCNSTRFEFIFTNLVPGSPRLFTSVMAVHRAYETSKMYRDFKLRSALIQNKQLRLLPQEHVYDKINGVWNLSSDQGNLGTFFITNVRIVWHANMNDSFNVSIPYLQIRSIKIRDSKFGLALVIESSQQSGGYVLGFKIDPVEKLQESVKEINSLHKVYSASPIFGVDYEMEEKPQPLEALTVEQIQDDVEIDSDGHTDAFVAYFADGNKQQDREPVFSEELGLAIEKLKDGFTLQGLWEVMS [G27K]	with no effect
MSVLDALWEDRDVRFDLKAQQMKTRPGEVLIDCLDSIEDTKGNNGDRGRLLVTNLRILWHSLALSRVNVSVGYNCILNITTRTANSKLRGQTEALYILTKCNSTRFEFIFTNLVPGSPRLFTSVMAVHRAYETSKMYRDFKLRSALIQNKQLRLLPQEHVYDKINGVWNLSSDQGNLGTFFITNVRIVWHANMNDSFNVSIPYLQIRSIKIRDSKFGLALVIESSQQSGGYVLGFKIDPVEKLQESVKEINSLHKVYSASPIFGVDYEMEEKPQPLEALTVEQIQDDVEIDSDGHTDAFVAYFADGNKQQDREPVFSEELGLAIEKLKDGFTLQGLWEVMS [S18K]	with no effect
MSVLDALWEDRDVRFDLSAQQMKTRPGEVLIDCLDSIEDTKGNNGDRGRLLVTNLRILWHSLALSRVNVSVGYNCILNITTRTANSKLRGQTEALYILTKCNSTRFEFIFTNLVPGSPRLFTSVMAVHRAYETSKMYRDFKLRSALIQNKQLRLLPQEHVYDKINGVWNLSSDQGNLGTFFITNVRIVWHANMNDSFNVSIPYLQIRSIKIRDSKFGLALVIESSQQSGGYVLGFKIDPVEKLQESVKEINSLHKVYSASPIFGVDYEMEEKPQPLEALTVEQIQDDVEIDSDGHTDAFVAYFADGNKQQDREPKFSEELGLAIEKLKDGFTLQGLWEVMS [V315K]	with no effect
MSVLDALWEDRDVRFDLSAQQMKTRPGEVLIDCLDSIEDTKGNNGDRGRLLVTNLRILWHSLALSRVNVSVGYNCILNIKTRTANSKLRGQTEALYILTKCNSTRFEFIFTNLVPGSPRLFTSVMAVHRAYETSKMYRDFKLRSALIQNKQLRLLPQEHVYDKINGVWNLSSDQGNLGTFFITNVRIVWHANMNDSFNVSIPYLQIRSIKIRDSKFGLALVIESSQQSGGYVLGFKIDPVEKLQESVKEINSLHKVYSASPIFGVDYEMEEKPQPLEALTVEQIQDDVEIDSDGHTDAFVAYFADGNKQQDREPVFSEELGLAIEKLKDGFTLQGLWEVMS [T80K]	with no effect
MSVLDALWEDRDVRFDLSAQQMKTRPGEVLIDCLDSIEDTKGNNGDRGRLLVTNLRILWHSLALSRVNVSVGYNCILNITTRTANSKLRGQTEALYILTKCNSTRFEFIFTNLVPGSPRLFTSVMAVHRAYETSKMYRDFKLRSALIQNKQLRLLPQEHVYDKINGVWNLSSDQGNLGTFFITNVRIVWHANMNDSFNVSIPYLQIRSIKIRDSKFGLALVIESSQQSGGYVLGFKINPVEKLQESVKEINSLHKVYSASPIFGVDYEMEEKPQPLEALTVEQIQDDVEIDSDGHTDAFVAYFADGNKQQDREPVFSEELGLAIEKLKDGFTLQGLWEVMS [D238N]	disrupting interaction strength
MSVLDALWEDRDVRFDLSAQQMKTRPGEVLIDCLDSIEDTKGNNGDRGRLLVTNLRILWHSLALSRVNVSVGYNCILNITTRTANSKLRGQTEALYILTKCNSTRFEFIFTNLVPGSPRLFTSVMAVHRAYETSKMYRDFKLRSALIQNKQLRLLPQEHVYDKINGVWNLSSDQGNLGTFFITNVRIVWHANMNDSFNVSIPYLQIRSIKIRDSKFGLALVIESSQQSGGYVLGFKIDPVEKLQESVKEINSLHKVYSASPIFGVDYEMEEKKQPLEALTVEQIQDDVEIDSDGHTDAFVAYFADGNKQQDREPVFSEELGLAIEKLKDGFTLQGLWEVMS [P273K]	with no effect
